Reference: patent US20100029573A1 (IMMATICS BIOTECHNOLOGIES, published 2010)

What was measured:
[1] = molecular target: MHC-A*02 tetramers complexed with the peptide … (human); experiment: double tetramer staining, flow cytometry
HLA-B*0702 [2] = molecular target: T1, HLA-B*0702 (human); experiment: peptide-pulsed KM22 cells; recombinant B*0702 tetramers made with the peptide
T1 construct: MHC class I molecule without the peptide
Description: For the CTL assays, KM22 and JY tumor cell lines were used as target cells. Peptide-pulsed cells were pulsed with 50 μg/mL peptide for 2 hours. […] Then, 10⁴ cells/well were added to a 96-well round bottom plate. Various numbers of CTL were added to obtain an end volume of 200 μL, with subsequent incubation for 4 hrs at 37° C. Then, supernatants (500 μL/well) were harvested and counted in a beta-plate counter. Specific lysis was calculated in percent as follows: 100×(experimental release−spontaneous release/maximum release−spontaneous release). Each, spontaneous and maximum release were determined in presence of either medium or 2% Triton X-100.
Cell lines KM22 and JY are HLA-B*07 positive.

HLA-B*0702 [3] = molecular target: T1, HLA-B*0702; experiment: recombinant B*0702 complexed with peptide, tetramer and microspheres
Description: Predetermined avidity of human CD8 T cells expanded on calibrated MHC/anti-CD28-coated microspheres. J. Immunol. […] Each dot represents the percentage of tetramer+among CD8+ lymphocytes from one well.

Molecule	percent of stimulated cells binding the tetramer [1] [%]	further results
CD8-positive T cells stimulated with melan-A peptide/MHC-A*02 tetramer complexes	19.3	
CD8-positive T cells stimulated with RGS-5 peptide …/MHC-A*02 tetramer complexes	8	
FPSLREAAL (also called MAGEA1; MAGE-1)		binding result (HLA-B*0702 [2]): binds
IARNLTQQL (also called ADFP)		binding result (HLA-B*0702 [3]): binds
